Results reported in publication PMC5389655.

Columns and labels:
[1] = target: Escherichia coli core RNA polymerase, assembled into synthetic transcription elongation complexes (TECs) (E. coli) (UniProt P0A8V2)
[2] = target: Escherichia coli core RNA polymerase, assembled into synthetic transcription elongation complexes (TECs) (E. coli) (UniProt P0A8V2); experiment: native gel or EMSA
[3] = target: Escherichia coli core RNA polymerase, assembled into synthetic transcription elongation complexes (TECs) (E. coli) (UniProt P0A8V2); experiment: native gel or EMSA; remark: listed apart in the source
[4] = target: Escherichia coli core RNA polymerase, assembled into synthetic transcription elongation complexes (TECs) (E. coli) (UniProt P0A8V2); experiment: […]) at 10 nM, […]

Sequence of UniProt P0A8V2 (P0A8V2 whole entry, looked up, one chain of several): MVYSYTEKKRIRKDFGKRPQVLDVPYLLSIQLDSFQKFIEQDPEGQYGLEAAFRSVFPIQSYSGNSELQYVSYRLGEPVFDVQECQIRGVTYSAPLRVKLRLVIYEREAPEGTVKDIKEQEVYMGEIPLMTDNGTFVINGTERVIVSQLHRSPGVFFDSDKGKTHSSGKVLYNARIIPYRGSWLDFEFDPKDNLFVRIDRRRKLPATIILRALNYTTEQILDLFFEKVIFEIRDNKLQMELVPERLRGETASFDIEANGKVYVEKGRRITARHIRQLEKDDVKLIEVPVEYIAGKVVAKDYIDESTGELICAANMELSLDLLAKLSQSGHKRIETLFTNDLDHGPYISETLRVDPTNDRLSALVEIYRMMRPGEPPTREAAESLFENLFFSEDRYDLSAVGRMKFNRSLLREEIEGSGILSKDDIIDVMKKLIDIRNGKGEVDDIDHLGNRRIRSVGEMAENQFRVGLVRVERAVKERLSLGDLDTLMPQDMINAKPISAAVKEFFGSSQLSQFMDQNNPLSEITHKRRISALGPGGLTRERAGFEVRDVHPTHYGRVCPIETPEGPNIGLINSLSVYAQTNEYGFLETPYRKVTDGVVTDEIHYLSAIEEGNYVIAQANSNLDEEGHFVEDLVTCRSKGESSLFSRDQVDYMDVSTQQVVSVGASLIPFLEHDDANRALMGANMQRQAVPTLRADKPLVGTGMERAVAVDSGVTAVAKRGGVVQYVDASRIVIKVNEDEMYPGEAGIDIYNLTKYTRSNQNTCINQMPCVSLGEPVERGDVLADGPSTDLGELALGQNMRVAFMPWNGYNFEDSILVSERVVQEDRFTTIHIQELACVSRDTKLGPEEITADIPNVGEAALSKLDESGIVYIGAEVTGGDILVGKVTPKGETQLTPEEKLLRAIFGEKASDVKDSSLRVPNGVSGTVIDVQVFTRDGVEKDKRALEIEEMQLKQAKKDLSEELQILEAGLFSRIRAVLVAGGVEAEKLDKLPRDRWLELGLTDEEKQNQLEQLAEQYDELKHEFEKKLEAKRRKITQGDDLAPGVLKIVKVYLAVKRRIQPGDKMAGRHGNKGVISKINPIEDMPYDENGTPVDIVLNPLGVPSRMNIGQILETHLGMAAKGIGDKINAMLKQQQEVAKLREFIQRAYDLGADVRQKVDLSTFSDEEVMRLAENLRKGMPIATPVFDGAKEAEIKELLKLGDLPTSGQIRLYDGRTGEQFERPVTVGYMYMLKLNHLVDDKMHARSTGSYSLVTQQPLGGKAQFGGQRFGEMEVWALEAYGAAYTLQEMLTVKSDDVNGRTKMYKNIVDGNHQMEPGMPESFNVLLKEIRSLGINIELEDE

## Escherichia coli σ^38 subunit (stationary phase and stress response σ factor) (from UniProt P13445 1-330) (natural protein)
[1]
  Kd from pausing efficiency in the transcription assay on the '-TG' TEC variant: 525 nM
[2]
  Kd: > 10000 nM
[3]
  Kd: 900 nM
[4]
  Kd: 330 nM
